Laboratory results as given in article PMC10707464.

Legend:
CCCCSC1CCC(=O)O1 = assay: purified protein; details: pH 8.0; 25.0 °C
[1] = tested on: CCCCCCCCCC(=O)CC(=O)N[C@H]1CCOC1=O; assay: purified protein; details: 25.0 °C

| Substance | Km (CCCCSC1CCC(=O)O1) [µM] | kcat/Km (CCCCSC1CCC(=O)O1) [M⁻¹ s⁻¹] | kcat/Km [1] [M⁻¹ s⁻¹] |
| --- | --- | --- | --- |
| SsoPox (Saccharolobus solfataricus P2) | 80 ± 3 | 360000 ± 10000 |  |
| SacPox (Sulfolobus acidocaldarius DSM 639) | 24 ± 0.5 | 1.86e+06 ± 70000 | 1.62e+07 ± 2.2e+06 |
